The text below walks through data of patent CN114423789A (ZHEJIANG JIANMAI PHARMACEUTICAL CO LTD, dated 2022).

Assay [1] addresses T1, recombinant human mesothelin (full-length extracellular domain) (human, UniProt Q13421 296-580, limits assumed).
T1 construct: extracellular domain; Bought protein coated on ELISA plates at 50 ng per well; also called 重组人间皮素; 人间皮素(MSLN)蛋白
As to the kind of experiment: ELISA, recombinant human mesothelin coated at 50 ng/well, Fab detected with HRP anti-FLAG.

In assay [2] the target is T1, recombinant human mesothelin …. As to the kind of experiment: ELISA, recombinant human mesothelin coated at 50 ng/well, fit to a Langmuir isotherm. (An ELISA detects its analyte on a solid surface through an enzyme-linked reagent.)

T1 sequence (Q13421 other isoform, or with tags, fused parts or gaps limits assumed): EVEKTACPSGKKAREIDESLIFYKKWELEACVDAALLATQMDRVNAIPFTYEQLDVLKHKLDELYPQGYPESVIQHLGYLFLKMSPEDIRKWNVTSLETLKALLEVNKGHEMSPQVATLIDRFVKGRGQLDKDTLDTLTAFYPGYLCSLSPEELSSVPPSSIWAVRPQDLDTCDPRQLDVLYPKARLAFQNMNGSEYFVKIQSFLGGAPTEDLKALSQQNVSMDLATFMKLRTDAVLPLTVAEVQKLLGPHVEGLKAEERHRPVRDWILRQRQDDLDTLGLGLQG

B1: M10 Fab (Fab, V domains shown)
VH: QLVETGGGLVQPGRSLRLSCAASGFTFDDYAMHWVRQAPGKGLEWVSGISWNSGSIGYADSVKGRFTISRDNAKNSLYLQMNSLRAEDTAVYYCARDSGSSGWYGYFQHWGQGTLVTVSS
VL: SYVLTQPPSVSVSPGQTARITCSGDALPKQYAFWYQQKPGQAPVLVIYKDSERPSGIPERFSGSSSGTTVTLTISGVQAEDEADYYCQSADSSATSVIFGGGTKLTVLG
notes: also called Fab克隆M10
What is called EC50 is the concentration that produces a half-maximal response. B1: the half-maximal effective concentration (EC50) in assay [1] was found to be 21 nM.

B2: M10 mAb (anti-human mesothelin monoclonal antibody IgG1) (antibody, V domains shown)
VH: B1 VH
VL: B1 VL
notes: Full human IgG1: the heavy-chain Fd of M10 Fab fused to human IgG1 Fc, about 150 kDa non-reduced; also called 抗间皮素M10 mAb; 抗间皮素单克隆抗体
For the molecule B2, the concentration giving a half-maximal response (EC50) in assay [2] came to 0.2 nM.
